Assay results: patent CN115043938A (DUAN LIANGWEI; JIANG ZHIHUA; WANG HUI, dated 2022)

B1: 抗体Amb2 (antibody, V domains shown)
VH: EVQLLESGPGLVKPSETLSLTCTVSGGSISNSSYYWGWIRQPPGKGLEWIGSIYYSGSTYYNPSLKSRVTISVDTSKNQFSLKLSSVTAADTGVYYCASWLYGDPISFDYWGQGTLVTVSS
VL: not shown
B2: 抗体Amb1 (antibody, V domains shown)
VH: EVQLLESGTEVKKPGSSVKVSCKASGGTFSSYAISWVRQAPGQGLEWMGGIIPILGIANYAQKFQGRVTITADKSTSTAYMELSSLRSEDTAVYYCARERGYSGYGAAYYFDYWGQGTLVTVSS
VL: QSVLTQAPSVSGAPGQSVTISCTGSSSNIGAGYDVHWYQQLPGTAPKLLIYGNNNRPSGVPDRFSGSKSGTSASLAITGLQAEDEADYYCQSYDSSLSKGVFGGGTKLTVL

Target: SARS-CoV-2 Beta S蛋白 (假病毒) (SARS-CoV-2 Beta, UniProt P0DTC2 14-1273)
Assay: cell-based or functional assay

| Binder | 假病毒中和 IC50 |
| --- | --- |
| B1 | 0.0452 µg/mL |
| B2 | 0.0266 µg/mL |
